What was measured:
β-TrCP1 = β-TrCP1 (UniProt Q9Y297); assay: co-IP, anti-HA IP, anti-Flag blot; conditions: reference: wild type; sites S525
β-TrCP2 = β-TrCP2 (UniProt Q9UKB1); assay: co-IP, anti-HA IP, anti-Flag blot; conditions: reference: wild type; sites S525

## Rap1GAP (from UniProt P47736) S525A
β-TrCP1
  binding against the reference: weaker
β-TrCP2
  binding against the reference: weaker

— PMC4201484
